Experimental data published in article PMC3843485.

Biological target: Pseudomonas aeruginosa cytoplasmic heme binding protein PhuS, apo form (Pseudomonas aeruginosa)
Experiment: crystal structure

Substance “Pseudomonas aeruginosa cytoplasmic heme binding protein PhuS, apo form (natural protein)” has a stoichiometry N of 2.
